How the values were obtained:
[1] = tested on: primary tumors and lung lesions; test: IHC staining of primary tumors and lung samples for proliferation and apoptosis markers; assay type: in vivo, mice; conditions: versus PBS
Description: FIGS. 7A-7D are graphs indicating the percentage of Ki67^+ (FIGS. 7A and 7B) and cleaved caspase-3^+ (FIGS. 7C, 7D) cells counted in primary tumor (FIGS. 7A, 7C) and spontaneous lung metastasis (FIGS. 7B, 7D) samples from mice treated with r-Tinagl1(711, 721, 731, 741) or PBS (710, 720, 730, 740) collected for H&E and IHC staining with indicated antibodies.
To address how Tinagl1 inhibits primary tumor growth and metastasis, primary tumors and corresponding lung samples were stained for proliferation and apoptosis markers. […] Consistent results were also observed in the staining of the tissues collected from the mice injected with the SUM159-M1a cells.
TIC staining was performed as previously described (Wan et al., 2014). Briefly, Paraffin-embedded primary tumor or lung samples were sliced into 4 μm thickness. The slides were baked overnight at 60° C. Next, the tissue slides were washed with PBS after deparaffinization and hydration and then boiled in citrate buffer at 100° C. for 40 min. After treated with 3% H2O2 for 30 min to block endogenous peroxidase, slides were incubated at 4° C. overnight with Ki67 (Leica Biosystem, Ki67-MM1-L-CE-S), cleaved caspase-3 (Cell signaling, 9661S), p-EGFR (Cell signaling, 3777), p-FAK (Cell signaling, 8556), CD31 (Cell signaling, 77699), -SMA (Sigma, A5228), or Tinagl1 (Sigma, HPA048695) antibodies. […]

LM2 cells = test: LM2 orthotopic tumors, single or combined agent treatment; assay type: in vivo, NSG female mice
Method: FIG. 17A is an image of WB analyses where NSG female mice were injected with 10^4 LM2 cells by MFP injection, and intravenously treated with the indicated reagents twice per week when tumors reached to 2 mm in dimeter, then after 5 weeks of the treatments, the primary tumors of each group were collected and activation of EGFR and FAK in primary tumor of each group were tested by WB.
FIG. 17B is a graph illustrating tumor volumes of each treatment group from FIG. 17A.
FIG. 17C is a graph, quantifying ex vivo BLI results where lungs in mice from FIG. 17A were collected and spontaneous metastasis was examined at the endpoint.
Two molecular targeting reagents, ATN-161 (ATN) and Erlotinib (Erlo) were employed. ATN is an integrin α5β1 antagonist that inhibits the integrin signaling pathway and slows tumor progression. Erlotinib is a well-established small molecular inhibitor of EGFR and is clinically approved for cancer treatment. Mice orthotopically implanted with LM2 cells were split into 6 groups after the tumors reached 2 mm in diameter and subjected to various single or combined agent treatments twice per week [(1) PBS; (2) ATN 30 μg/mouse; (3) Erlo 100 mg/kg; (4) r-Tinagl1 30 μg/mouse; (5) ATN and Erlo; and (6) ATN, Erlo, and r-Tinagl1]. Referring to FIG. 17A, the inhibition of integrin/FAK and EGFR upon each treatment was validated by western blotting and TIC staining.
(§1) For xenograft studies, 8-weeks immunocompromised NOD Scid Gamma (NSG) or immunocompetent FVB females were used. Cells were suspended in 10 μl of PBS for mammary gland injection (MFP), or were suspended in 100 μl of PBS for intravenous injection. For human patient-derived xenograft (PDX, HCL001, kindly provided by Dr. Alana Welm) study, we followed the standard protocol for PDX transplantation, maintenance and digestion of the tumors (DeRose et al., 2011). 2×10^4 cells were suspended in 10 μl of PBS and subjected to MFP injection. For recombinant Tinagl1 (r-Tinagl1), ATN-161, Erlotinib treatments, the mice were injected with 30 μg/mouse, 30 μg/mouse, and 100 mg/kg respectively twice per week via tail-vein. Primary tumors were quantified once per week via caliper measurement. All cell lines used for lung metastasis experiments were stably labeled with a firefly luciferase expressing vector and were monitored by weekly bioluminescent imaging (BLI). At protocol-defined endpoints, lungs were dissected and fixed in bouin's solution and the metastatic lesions were counted.

SUM159-M1a = SUM159-M1a orthotopic tumors, single or combined agent treatment; assay type: in vivo, NSG female mice; conditions: SUM159-M1a model
Method: FIG. 17D is an image of WB analyses where NSG female mice were injected with 10^4 M1a cells by MFP injection, and treated with the indicated reagents twice per week when tumors reached to 2 mm in diameter, then after 5 weeks of the treatments, the primary tumors of each group were collected and activation of EGFR and FAK in primary tumor of each group was tested by WB.
FIG. 17E is a graph illustrating tumor volumes of each treatment group from FIG. 17D.
as §1, with “For recombinant Tinagl1 (r-Tinagl1), ATN-161, Erlotinib treatments, the mice were injected with 30 μg/mouse, 30 μg/mouse, and 100 mg/kg respectively twice per week via tail-vein.” left out

[2] = tested on: orthotopically implanted mammary tumors; test: r-Tinagl1 treatment of orthotopically implanted mammary tumors; assay type: in vivo, mice; conditions: continuous treatment of r-Tinagl1 for 7 weeks
Description: To test if recombinant Tinagl1 protein (r-Tiangl1) treatment would slow tumor progression, full length recombinant human Tinagl1 with 6×His tag at the C-terminus (r-Tinagl1) was expressed in HEK293T cells and r-Tinagl1 was purified from the culture media using Ni^2+-NTA purification system. r-Tinagl1 was used to treat orthotopically implanted mammary tumors.
as §1, with “For recombinant Tinagl1 (r-Tinagl1), ATN-161, Erlotinib treatments, the mice were injected with 30 μg/mouse, 30 μg/mouse, and 100 mg/kg respectively twice per week via tail-vein.” left out

[3] = tested on: primary tumors and lung metastases; test: IHC staining of tumor samples from treatment groups (Ki67, Casp3, CD31, α-SMA); assay type: in vivo, NSG female mice
Method: FIGS. 17F-17I are graphs quantifying positives cells per field where primary tumors were collected from indicated treatment groups from FIG. 17D and then subjected to IHC staining with indicated antibodies, including % Ki67^+ (17F), % Casp3^+ (17G), % CD31^+ (17H), and % α-SMA^+ (17I).
TIC staining was performed as previously described (Wan et al., 2014). Briefly, Paraffin-embedded primary tumor or lung samples were sliced into 4 μm thickness. The slides were baked overnight at 60° C. Next, the tissue slides were washed with PBS after deparaffinization and hydration and then boiled in citrate buffer at 100° C. for 40 min. After treated with 3% H2O2 for 30 min to block endogenous peroxidase, slides were incubated at 4° C. overnight with Ki67 (Leica Biosystem, Ki67-MM1-L-CE-S), cleaved caspase-3 (Cell signaling, 9661S), p-EGFR (Cell signaling, 3777), p-FAK (Cell signaling, 8556), CD31 (Cell signaling, 77699), -SMA (Sigma, A5228), or Tinagl1 (Sigma, HPA048695) antibodies. Following washes with PBS, slides were then incubated with HRP-conjugated goat anti-rabbit or mouse secondary antibody (Genetech) for 30 min at room temperature. Sections were stained by DAB and then counterstained with Gill hematoxylin according to manufacturer's instructions.

B1: r-Tinagl1: full length recombinant human Tinagl1 with 6×His tag at the C-terminus [SEQ ID NO.: 24], expressed in HEK293T cells (protein, listed as Homo sapiens)
chain: MWRCPLGLLLLLPLAGHLALGAQQGRGRRELAPGLHLRGIRDAGGRYCQEQDLCCRGRADDCALPYLGAICYCDLFCNRTVSDCCPDFWDFCLGVPPPFPPIQGCMHGGRIYPVLGTYWDNCNRCTCQENRQWQCDQEPCLVDPDMIKAINQGNYGWQAGNHSAFWGMTLDEGIRYRLGTIRPSSSVMNMHEIYTVLNPGEVLPTAFEASEKWPNLIHEPLDQGNCAGSWAFSTAAVASDRVSIHSLGHMTPVLSPQNLLSCDTHQQQGCRGGRLDGAWWFLRRRGVVSDHCYPFSGRERDEAGPAPPCMMHSRAMGRGKRQATAHCPNSYVNNNDIYQVTPVYRLGSNDKEIMKELMENGPVQALMEVHEDFFLYKGGIYSHTPVSLGRPERYRRHGTHSVKITGWGEETLPDGRTLKYWTAANSWGPAWGERGHFRIVRGVNECDIESFVLGVWGRVGMEDMGHHVDHHHHHH
modifications: C-terminal 6xHis tag
In the case of B1, the “Ki67+ cells” value [1] is reported as “significantly fewer”, the “cleaved caspase-3+ apoptotic cells” value [1] is reported as “no difference” and the primary tumor growth (LM2 cells; LM2, twice per week, ATN 30 μg/mouse, Erlo 100 mg/kg, r-Tinagl1 30 μg/mouse) is reported as “significantly suppressed primary tumor growth”. The spontaneous lung metastasis (LM2 cells; LM2 tumors, ex vivo BLI at endpoint) was “reduced spontaneous lung metastasis”, the lung metastasis (SUM159-M1a) was “stronger effect than single treatment of Erlotinib” and the primary tumor growth [2] was “significantly inhibited”. The spontaneous lung metastasis [2] was “significantly inhibited”, the “CD31+ endothelium” value ([3]; primary and lung metastasis) was “significantly reduced” and the “tumor cell proliferation (Ki67 staining)” value ([3]; primary tumor and lung metastatic nodules) was “strong anti-proliferative effects on both primary tumors and lung metastases”.

Reference: patent US20210379147A1, “METHOD AND SYSTEM FOR TREATING CANCER UTILIZING TINAGL1” (The Trustees of Princeton University, priority 2018, published 2021)
